These results are taken from IntAct's records for PubMed 30058071.

In this experiment the target is SHANK3, Q9BYB0-1.
Chain of SHANK3, Q9BYB0-1 (Q9BYB0 whole entry): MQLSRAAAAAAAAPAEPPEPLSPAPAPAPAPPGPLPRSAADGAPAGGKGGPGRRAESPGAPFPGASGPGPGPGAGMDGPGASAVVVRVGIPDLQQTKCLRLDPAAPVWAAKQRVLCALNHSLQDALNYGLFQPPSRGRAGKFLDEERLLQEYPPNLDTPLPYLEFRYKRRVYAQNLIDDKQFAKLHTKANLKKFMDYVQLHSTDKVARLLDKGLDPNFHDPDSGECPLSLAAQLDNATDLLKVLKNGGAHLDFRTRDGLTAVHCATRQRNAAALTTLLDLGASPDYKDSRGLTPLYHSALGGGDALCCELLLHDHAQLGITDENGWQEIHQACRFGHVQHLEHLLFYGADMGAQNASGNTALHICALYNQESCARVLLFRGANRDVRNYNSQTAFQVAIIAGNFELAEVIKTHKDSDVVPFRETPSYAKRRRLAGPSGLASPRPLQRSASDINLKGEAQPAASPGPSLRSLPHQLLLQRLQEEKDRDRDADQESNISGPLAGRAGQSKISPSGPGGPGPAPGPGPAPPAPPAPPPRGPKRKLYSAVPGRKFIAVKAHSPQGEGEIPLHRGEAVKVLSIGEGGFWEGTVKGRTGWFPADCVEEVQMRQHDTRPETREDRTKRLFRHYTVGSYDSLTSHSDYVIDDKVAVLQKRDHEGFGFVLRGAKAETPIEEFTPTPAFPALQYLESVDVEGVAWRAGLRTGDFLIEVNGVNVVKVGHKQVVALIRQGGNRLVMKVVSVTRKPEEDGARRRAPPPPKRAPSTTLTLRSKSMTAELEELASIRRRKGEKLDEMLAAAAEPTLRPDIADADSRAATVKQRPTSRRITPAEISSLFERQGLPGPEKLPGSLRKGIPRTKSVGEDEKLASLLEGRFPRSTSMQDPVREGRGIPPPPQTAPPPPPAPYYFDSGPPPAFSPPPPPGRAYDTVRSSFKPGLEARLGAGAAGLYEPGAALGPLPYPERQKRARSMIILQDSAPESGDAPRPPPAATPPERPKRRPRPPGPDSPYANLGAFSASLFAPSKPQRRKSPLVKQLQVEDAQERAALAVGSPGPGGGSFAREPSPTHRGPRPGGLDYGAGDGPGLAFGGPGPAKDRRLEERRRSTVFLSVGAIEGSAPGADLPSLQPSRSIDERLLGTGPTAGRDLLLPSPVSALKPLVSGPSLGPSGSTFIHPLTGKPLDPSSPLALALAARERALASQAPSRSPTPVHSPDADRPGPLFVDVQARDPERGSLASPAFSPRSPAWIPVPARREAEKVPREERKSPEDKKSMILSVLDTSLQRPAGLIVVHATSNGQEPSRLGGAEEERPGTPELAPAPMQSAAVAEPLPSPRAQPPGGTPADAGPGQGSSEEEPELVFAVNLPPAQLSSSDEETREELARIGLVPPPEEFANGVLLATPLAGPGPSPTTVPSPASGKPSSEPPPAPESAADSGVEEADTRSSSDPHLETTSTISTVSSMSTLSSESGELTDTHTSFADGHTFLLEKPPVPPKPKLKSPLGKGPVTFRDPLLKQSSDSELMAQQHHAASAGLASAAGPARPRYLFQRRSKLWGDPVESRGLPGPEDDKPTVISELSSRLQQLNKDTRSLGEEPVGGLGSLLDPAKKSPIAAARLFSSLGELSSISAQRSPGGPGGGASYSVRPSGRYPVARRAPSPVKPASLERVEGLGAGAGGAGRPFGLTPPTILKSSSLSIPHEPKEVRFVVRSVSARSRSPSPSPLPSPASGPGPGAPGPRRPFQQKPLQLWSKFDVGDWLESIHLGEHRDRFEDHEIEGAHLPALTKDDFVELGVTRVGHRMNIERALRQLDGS

Turning to “Voltage-dependent L-type calcium channel subunit alpha-1D (Homo sapiens), Q01668 R1908G”, the “effect of a mutation on the interaction” value is given as “disrupting interaction strength”.
